Reference: the supplement of paper PMC10126150
± gives the standard deviation of the averaged measurements.

system: ATP; assay: switch fluorescence ratio, 500 uM ATP over buffer (Cy3 cluster intensity, sum of 5 cycles each) (fold (ratio)); higher = stronger signal-on switching upon ATP binding; sequences stand for … in TCGTCGGCAGCGTCAGATGTGTATAAGAGACAGTTTTTTTTTTTTTTTTTTTTTTTTT…TC; conditions: aptamer strand: ATP DNA aptamer (quencher-CACCTGGGGGAGTATTGCGGAGGAAGG + anchor), 100 nM annealed; ATP concentration: 500 uM
How it was run: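 Exposure to 500 uM ATP lasted 15 min at 22 °C before imaging, and a selection-buffer image was taken beforehand, for Cy3-labelled switching-strand clusters on a modified Illumina MiSeq flow-cell annealed to 100 nM quencher-labelled ATP aptamer. Five buffer/ATP cycles were run with NaOH stripping and re-annealing between them. The fluorescence ratio per cluster is summed target-cycle over summed buffer-cycle Cy3 intensity, averaged per switch-domain sequence. Clusters outside 100-1000 RFU were excluded.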

Row | Sequence | switch fluorescence ratio
1 | TTCGGAACAG | 0.967 ± 0.013
2 | TGGTAATATT | 0.962 ± 0.015
3 | ATCCTGCAGT | 1.15 ± 0.031
4 | TGAGGTAGGG | 0.976 ± 0.053
5 | CACGTTGTTT | 0.9963 ± 0.0019
6 | CCATGGGCGA | 1.1 ± 0.02
7 | ATTGTGGGGA | 0.985 ± 0.048
8 | TAACCTTTAA | 1.04 ± 0.02
9 | ATATGAAAGT | 0.977 ± 0.024
10 | GTATTAAAAG | 1 ± 0.049
11 | CAAATGAAAG | 1.004 ± 0.0058
12 | GATGTAATTT | 1.03 ± 0.023
13 | TTATGAGTTT | 0.988 ± 0.036
14 | GACCGAGTTC | 1.005 ± 0.0024
15 | GTTAGAAGGT | 1 ± 0.018
16 | TCTTATAGGT | 0.986 ± 0.017
17 | AAAGCTCGTA | 1.06 ± 0.054
18 | TAGGCTGATA | 1.01 ± 0.029
19 | AAATACGGGA | 1.17 ± 0.13
20 | TATACGTGCC | 1.03 ± 0.025
21 | ATAGGAGTAT | 1.01 ± 0.026
22 | ATATGTGGTG | 1.02 ± 0.028
23 | GCCGCAGGGG | 2.61 ± 1.3
24 | TTTTAGATTT | 0.995 ± 0.026
25 | AGGAGCCTTT | 0.9927 ± 0.0011

Row | Sequence | switch fluorescence ratio
26 | ATCGTTTATT | 0.99436 ± 0.00033
27 | ATGGGACGGT | 1.03 ± 0.036
28 | TGGGGGAGCG | 0.99 ± 0.019
29 | TATAGTACGG | 1.049 ± 0.0095
30 | AGGTAGTGGG | 0.974 ± 0.029
31 | TCATCTAGGA | 0.985 ± 0.011
32 | AAAGGAGAGG | 1.01 ± 0.05
33 | TGAGGGATGA | 1.028 ± 0.0075
34 | TAGAGAAGTT | 1 ± 0.015
35 | CAAGATTCTT | 0.975 ± 0.056
36 | CATAGACGGG | 1.03 ± 0.081
37 | CCTGGCGCCA | 1.006 ± 0.0021
38 | TAGGAGGGA | 1 ± 0.024
39 | TCTGGAAAGG | 0.9844 ± 0.00033
40 | ACTTTATGCT | 1.01 ± 0.024
41 | AGGTACGGGG | 0.971 ± 0.012
42 | TTGGTAGAGT | 0.965 ± 0.04
43 | GTATCCGGGA | 1.02 ± 0.057
44 | AACTTTTCTA | 0.976 ± 0.017
45 | AACCCGCACC | 2.75 ± 0.12
46 | ATATTCTTGT | 1.009 ± 0.0095
47 | GCAATAATGC | 1.603 ± 0.014
48 | GCTGTAGCGC | 1.06 ± 0.035
49 | CGTTATTTTT | 1.016 ± 0.0089
50 | TTTGATTGTG | 1.03 ± 0.029

Row | Sequence | switch fluorescence ratio
51 | TGTGTCCTAA | 1.03 ± 0.026
52 | CAAGAACGTT | 0.997 ± 0.018
53 | TTTAGATGGG | 0.989 ± 0.029
54 | TTTCCTTTTG | 1.01 ± 0.054
55 | TCTTAAAGGG | 0.9808 ± 0.0011
56 | GTTTGCTATT | 0.992 ± 0.032
57 | GGTTCGGGGG | 0.997 ± 0.037
58 | GGCTTTTGGG | 1.03 ± 0.088
59 | GTGAAGGAGC | 0.995 ± 0.017
60 | TTTTGCATAT | 1.26 ± 0.42
61 | GCAAGGAGCG | 1.03 ± 0.039
62 | ATCAAAGAAC | 1.05 ± 0.042
63 | TCGGTATATG | 0.991 ± 0.011
64 | TGGATATGGT | 1.01 ± 0.013
65 | AATAGGACAA | 0.982 ± 0.037
66 | ACGCTATCGC | 1.526 ± 0.0041
67 | AGGGGGGGT | 1.05 ± 0.077
68 | ATCTTAGGTT | 1.03 ± 0.096
69 | CTTAGCCTTT | 0.983 ± 0.016
70 | GTGGACTTCG | 1.0178 ± 0.001
71 | CAGTTGTAAA | 0.9699 ± 0.0067
72 | GGGCTATTAG | 0.98 ± 0.013
73 | AAGTGGAATT | 1.03 ± 0.018
74 | TTAGGTTTGT | 1 ± 0.031
75 | AGTAAATTTA | 1.001 ± 0.0046

Row | Sequence | switch fluorescence ratio
76 | ATTGTGCCTG | 1.083 ± 0.0093
77 | TTCTGTTGAT | 0.9875 ± 0.0092
78 | AAGCTGGTGT | 1.014 ± 0.0075
79 | AAGGTTGGAT | 0.987 ± 0.012
80 | GTTGGAGGTG | 1.06 ± 0.012
81 | TTGTGGTCTT | 0.9762 ± 0.0075
82 | TCTCTATCCG | 0.997 ± 0.046
83 | GTGTACTCGA | 1.04 ± 0.019
84 | AATGAGACAG | 1 ± 0.02
85 | AAAATGAAAA | 0.987 ± 0.0071
86 | GGATGATGA | 1.01 ± 0.061
87 | ATATGCTATC | 1.02 ± 0.014
88 | CGTAGGAATT | 1.07 ± 0.015
89 | AAAAAAGACG | 1.05 ± 0.017
90 | TTTGTTTAAG | 0.973 ± 0.012
91 | CGTTGATGTC | 1.01 ± 0.13
92 | GTCTCAAGGG | 0.981 ± 0.039
93 | TAACTGGCTT | 1.01 ± 0.036
94 | TTCCCCGTTG | 1.12 ± 0.15
95 | ATCGAAGAGG | 0.995 ± 0.048
96 | AATATTTTCG | 0.998 ± 0.038
97 | TCAAGTGCAG | 0.99 ± 0.027
98 | AATTTTTGTC | 1.01 ± 0.023
99 | CGGGCTAAGG | 0.986 ± 0.018
100 | CTTGATGTAA | 1 ± 0.064

Row | Sequence | switch fluorescence ratio
101 | GGGGGCTGGG | 0.992 ± 0.025
102 | CCAAAATTGA | 1 ± 0.014
103 | AGGTTTGATC | 1.006 ± 0.0096
104 | ATTTAGACTT | 1.039 ± 0.01
105 | TTTAAAATTC | 1.28 ± 0.49
106 | GAAGACGGGA | 1.01 ± 0.045
107 | CATATGGGGG | 1.02 ± 0.046
108 | AAATGTAAAA | 1.01 ± 0.042
109 | GAGGTCGGCA | 1.02 ± 0.011
110 | GGTATAGGGT | 0.981 ± 0.01
111 | TCAGTGGATG | 0.9794 ± 0.0032
112 | AGGTTCCTAG | 0.9775 ± 0.0049
113 | GGGGGTCATC | 0.971 ± 0.011
114 | CGGTGATCGG | 0.996 ± 0.013
115 | TTACCGGTAG | 0.993 ± 0.059
116 | TTAGGGTCGC | 0.993 ± 0.035
117 | GGAATGGTCG | 0.977 ± 0.13
118 | ATTAGACCCT | 1.038 ± 0.005
119 | CGGAAAGGGA | 1.01 ± 0.022
120 | ATGCAGATCC | 1.04 ± 0.042
121 | AGTTTGACCT | 1.15 ± 0.032
122 | TACGCGGGGG | 1.019 ± 0.0098
123 | ACTTTGAGTG | 0.976 ± 0.015
124 | CTTTGATTGG | 0.99 ± 0.04
125 | GGATTTCAGG | 0.982 ± 0.017

Row | Sequence | switch fluorescence ratio
126 | TGCGTGGCGG | 1.02 ± 0.037
127 | CGTTTTCAGA | 0.9966 ± 0.0015
128 | CGGCGCCCA | 0.997 ± 0.01
129 | CAAATGTCAA | 0.987 ± 0.015
130 | TATTAGGTCT | 0.991 ± 0.045
131 | GTTTGGGGCG | 1.01 ± 0.035
132 | GGGCAAGCAT | 0.999 ± 0.037
133 | AAGGGGGTGA | 1.01 ± 0.025
134 | AAGAATGACT | 0.977 ± 0.014
135 | ACTATATTTT | 1.04 ± 0.0067
136 | ATAGGTTTGG | 0.97 ± 0.014
137 | ACTTGTGGTC | 0.9952 ± 0.0084
138 | GCTTCTTGTT | 1 ± 0.015
139 | TACGTAACTC | 1.28 ± 0.028
140 | CAGTCATGGG | 1 ± 0.035
141 | CTGCTTGGGA | 1.012 ± 0.0033
142 | TAATATGGTT | 1.03 ± 0.055
143 | CATGACTCCC | 2.01 ± 0.13
144 | GTTGTGATGT | 1 ± 0.013
145 | TATAACTCAT | 1.02 ± 0.029
146 | ATACTACGGA | 1.03 ± 0.062
147 | TCAGCGTGTC | 0.9648 ± 0.0079
148 | TCTGAGCGGC | 0.9349 ± 0.0037
149 | TTGTTCCATA | 1 ± 0.033
150 | AGGTTAGCGT | 0.9946 ± 0.0013

Row | Sequence | switch fluorescence ratio
151 | ACAGAAGGGA | 1.03 ± 0.068
152 | TTGTATGGG | 0.984 ± 0.015
153 | CGGCCAGGGG | 1.5 ± 0.09
154 | ATGGGAGGGG | 1.01 ± 0.035
155 | TTGCATTTAA | 1.0047 ± 0.00053
156 | ATTACTAGTG | 1.03 ± 0.014
157 | GCTGAAGGAT | 1 ± 0.0058
158 | AATAGCATTG | 0.972 ± 0.029
159 | TGGAAAACTT | 1.11 ± 0.16
160 | TTGGTGAATT | 0.99 ± 0.019
161 | ACGGTTGATG | 0.986 ± 0.021
162 | TGCGGGGGCT | 1.002 ± 0.0025
163 | GAGGGGTCCT | 1.24 ± 0.39
164 | TGGCGTAGGT | 1.005 ± 0.0083
165 | AACAAATGAT | 1.007 ± 0.0024
166 | TTTGCATGAA | 0.992 ± 0.011
167 | CGGGTGTATC | 1.03 ± 0.046
168 | AAAATGTGGT | 1 ± 0.015
169 | TAAGTGTGTG | 0.975 ± 0.021
170 | ACGGAGGGTT | 0.992 ± 0.01
171 | TCGAGTGTGC | 1.06 ± 0.021
172 | TAACAATCGC | 1.06 ± 0.038
173 | CTGCAGTTGA | 1.04 ± 0.024
174 | GGTACTATTT | 1 ± 0.026
175 | ACATGGGGGA | 1.02 ± 0.0082

Row | Sequence | switch fluorescence ratio
176 | CGCCCTTGGC | 1.07 ± 0.036
177 | TGGCCGGGCA | 2.13 ± 1.6
178 | TAACTAATTT | 1.03 ± 0.017
179 | GCTTTACAGA | 1 ± 0.016
180 | CCGTGATATG | 2.492 ± 0.0084
181 | TAAATTATTT | 0.999 ± 0.023
182 | CATCGTTTTT | 1.02 ± 0.02
183 | ATTAGAGATT | 1.01 ± 0.028
184 | CAGGCGGGTG | 1.06 ± 0.11
185 | GTGTATAGAT | 1.01 ± 0.011
186 | GATTTTAGTC | 0.993 ± 0.04
187 | ACGGATCCTT | 1.026 ± 0.0059
188 | TATTTAGTAG | 1.006 ± 0.0072
189 | CCTGTGTGAC | 1.344 ± 0.013
190 | ACAAACCACC | 1.34 ± 0.057
191 | GAGGGCATTT | 0.985 ± 0.02
192 | CCTATGCTTC | 3.38 ± 1.7
193 | GAGTAAGAGT | 1.0175 ± 0.00091
194 | GCTTAAATTT | 1 ± 0.016
195 | ATTTCAGTCT | 0.977 ± 0.051
196 | TCAATTTTGT | 0.997 ± 0.022
197 | TAGAAAAAGA | 0.988 ± 0.016
198 | TTGGACGCAC | 2.08 ± 0.12
199 | GGGAGAATAG | 0.985 ± 0.036
200 | TGAAAAGGTT | 0.983 ± 0.023
